Measurements reported in patent publication US20200197536A1.

Molecular target: Met (hepatocyte growth factor receptor) on Hep3B cells (human) (UniProt P08581)
Experiment: flow cytometry saturation binding of Alexa Fluor 647-labeled protocells (0.015 wt % MC40, about 6 peptides/particle) on cytochalasin D-treated Hep3B cells; non-specific binding measured with saturating unlabeled hepatocyte growth factor and subtracted

UniProt P08581, sequence (P08581 25-1390): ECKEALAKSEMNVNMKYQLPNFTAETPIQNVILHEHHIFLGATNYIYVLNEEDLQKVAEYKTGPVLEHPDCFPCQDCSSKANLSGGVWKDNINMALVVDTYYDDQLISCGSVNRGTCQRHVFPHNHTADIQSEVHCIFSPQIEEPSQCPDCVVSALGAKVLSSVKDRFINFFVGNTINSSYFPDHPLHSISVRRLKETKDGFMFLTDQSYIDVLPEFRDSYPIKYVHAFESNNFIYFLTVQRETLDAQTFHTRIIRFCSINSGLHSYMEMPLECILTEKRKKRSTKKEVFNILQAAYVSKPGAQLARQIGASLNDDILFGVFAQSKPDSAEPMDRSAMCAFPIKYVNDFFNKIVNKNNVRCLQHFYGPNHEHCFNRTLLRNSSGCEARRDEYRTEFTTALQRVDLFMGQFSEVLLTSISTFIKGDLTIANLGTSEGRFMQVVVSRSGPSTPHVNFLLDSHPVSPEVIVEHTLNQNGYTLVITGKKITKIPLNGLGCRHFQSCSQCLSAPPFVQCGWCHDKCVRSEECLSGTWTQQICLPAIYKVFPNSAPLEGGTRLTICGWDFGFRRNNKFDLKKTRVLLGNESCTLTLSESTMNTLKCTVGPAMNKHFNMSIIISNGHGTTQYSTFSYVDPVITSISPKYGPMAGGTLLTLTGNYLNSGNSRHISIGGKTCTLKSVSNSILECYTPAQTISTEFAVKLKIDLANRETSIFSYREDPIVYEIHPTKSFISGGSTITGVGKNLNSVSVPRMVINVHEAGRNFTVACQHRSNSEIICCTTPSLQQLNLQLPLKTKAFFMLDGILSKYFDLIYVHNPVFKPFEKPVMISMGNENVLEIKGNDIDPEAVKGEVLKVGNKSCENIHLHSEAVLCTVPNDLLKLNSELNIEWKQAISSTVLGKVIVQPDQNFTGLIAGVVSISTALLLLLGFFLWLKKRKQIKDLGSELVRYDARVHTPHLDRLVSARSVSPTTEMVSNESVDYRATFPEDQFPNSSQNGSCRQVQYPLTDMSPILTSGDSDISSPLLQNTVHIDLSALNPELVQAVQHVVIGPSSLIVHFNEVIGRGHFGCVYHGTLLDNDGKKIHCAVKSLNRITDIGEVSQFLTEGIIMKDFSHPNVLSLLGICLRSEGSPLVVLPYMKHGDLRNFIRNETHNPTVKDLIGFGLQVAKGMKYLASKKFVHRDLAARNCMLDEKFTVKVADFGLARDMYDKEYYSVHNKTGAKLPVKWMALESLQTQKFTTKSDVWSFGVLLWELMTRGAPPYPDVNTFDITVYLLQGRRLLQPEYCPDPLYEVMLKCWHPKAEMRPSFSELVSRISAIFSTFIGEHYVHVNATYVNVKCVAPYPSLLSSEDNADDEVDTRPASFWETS

Substance: MC40-targeted protocells (mesoporous silica nanoparticle-supported lipid bilayer modified with 0.015 wt % MC40 targeting peptide)
- Kd: 1.05 nM
